One substance from patent US20190248924A1 can be followed below.

This experiment addresses human CTLA-4Ig (R&D Systems) (human) (UniProt P16410). Nature of the experiment: ELISA, human CTLA-4Ig immobilized on the plate, detection with anti-human Fab-HRP, OD450; unit taken from the x axis; fit value of a flat control curve, far beyond the range tested. On the technique in general: ELISA stands for enzyme-linked immunosorbent assay.
UniProt P16410, sequence (P16410 37-162): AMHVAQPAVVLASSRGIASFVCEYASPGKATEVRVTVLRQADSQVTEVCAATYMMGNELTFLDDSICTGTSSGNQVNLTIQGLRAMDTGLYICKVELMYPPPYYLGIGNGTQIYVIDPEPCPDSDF

Turning to hIgG Control (antibody), the EC50 (usually the concentration needed to bring the measured effect to its halfway point) amounted to 51.3 µM.
